From FireProtDB (doi:10.1093/protein/7.6.777)

Details: Hordeum vulgare, whole UniProt chain shown
[1] = pH 3, Thermal, DSC, glycine-HCl 10 mM
[2] = pH 6.25, 25 °C, GdnHCl, Fluorescence, MES 50 mM

B1: Subtilisin-chymotrypsin inhibitor-2A wild type, P01053 (protein)
chain: MSSVEKKPEGVNTGAGDRHNLKTEWPELVGKSVEEAKKVILQDKPEAQIIVLPVGTIVTMEYRIDRVRLFVDKLDNIAQVPRVG
For B1, which Tm [1] is on record?
The Tm was 63.8 °C.

And the “unfolding enthalpy (calorimetric)” value [1]?
Its value is 60 kcal/mol.

What about the denaturant m value [2] of the same protein?
Its denaturant m value is 1.9 kcal/mol/M.

What about the “denaturant midpoint (higher = more stable)” value [2] of the same protein?
The value was 4 M.

What about the unfolding free energy [2] of the same protein?
The unfolding free energy was 7.61 kcal/mol.
